Reference: patent US20120283184A1 (published 2012)

target: T1, human vascular endothelial growth factor receptor-2 Fc chimera (KDR-Fc) (human, UniProt P35968 20-764); test: radioactive equilibrium binding, 1 nM KDR-Fc, % of input
T1 construct: range 1-764; also called human VEGFR-2; not shown: human IgG1 Fc
Procedure: To prepare ³⁵S-labeled binding proteins for analysis, mRNA was prepared as described above for RNA-protein fusion production but the linker ligation step was omitted. The mRNA was expressed using rabbit reticulocyte lysate translation kit (Ambion) in the presence of ³⁵S-labeled Met at 30° C. for 1 hour. Expressed protein was purified on M2-agarose Flag beads (Sigma) as described above. This procedure produced the encoded protein without the nucleic acid tail. In a direct binding assay, VEGF-R2-Fc fusions in concentrations ranging from 0 to 200 nM were added to a constant concentration of the purified protein (0.2 or 0.5 nM) and incubated at 30° C. for 1 hour in buffer B. The receptor-binder complexes were captured using Protein A magnetic beads for another 10 minutes at room temperature using a Kingfisher™ The beads were washed with six reaction volumes of buffer B. The protein was eluted from the beads with 100 μL of 0.1 M KOH. 50 μL of the reaction mixture and elution were dried onto a LumaPlate-96 (Packard) and the amount of ³⁵S on the plate was measured using a TopCount NXT instrument (Packard). The amount of fibronectin-based scaffold protein bound to the target was estimated as a percent of radioactivity eluted from Protein A magnetic beads compare to radioactivity in the reaction mixture. Nonspecific binding of fibronectin-based scaffold proteins to the beads was determined by measuring binding in the absence of KDR-Fc and represented less than 1-2% of the input. Specific binding was obtained through subtraction of nonspecific binding from total binding. Data was analyzed using the GraphPad Prizm software (GraphPad Software, Inc, San Diego, Calif.), fitted using a one site, non-linear binding equation.

T1 sequence (P35968 20-764 limits assumed, change not shown, form in doubt): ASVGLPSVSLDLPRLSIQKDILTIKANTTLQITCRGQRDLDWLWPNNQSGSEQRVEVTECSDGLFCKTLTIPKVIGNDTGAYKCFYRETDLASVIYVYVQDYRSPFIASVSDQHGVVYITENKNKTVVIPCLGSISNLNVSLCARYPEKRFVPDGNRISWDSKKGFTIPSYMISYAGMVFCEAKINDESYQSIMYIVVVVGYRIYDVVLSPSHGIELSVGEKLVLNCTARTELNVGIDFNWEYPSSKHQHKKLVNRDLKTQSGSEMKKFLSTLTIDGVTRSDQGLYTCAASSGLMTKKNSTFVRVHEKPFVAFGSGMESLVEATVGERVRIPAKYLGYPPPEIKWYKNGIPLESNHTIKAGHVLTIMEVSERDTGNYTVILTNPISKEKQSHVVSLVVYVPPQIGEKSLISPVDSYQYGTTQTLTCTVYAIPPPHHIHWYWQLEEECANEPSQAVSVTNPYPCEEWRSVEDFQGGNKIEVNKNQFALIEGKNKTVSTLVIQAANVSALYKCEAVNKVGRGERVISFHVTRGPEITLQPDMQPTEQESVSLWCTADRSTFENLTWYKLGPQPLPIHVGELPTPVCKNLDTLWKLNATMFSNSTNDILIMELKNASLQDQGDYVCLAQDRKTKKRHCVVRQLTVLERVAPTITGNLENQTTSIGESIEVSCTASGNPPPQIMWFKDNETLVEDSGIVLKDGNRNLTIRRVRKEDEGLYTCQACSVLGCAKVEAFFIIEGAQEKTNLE

| Binding to 1 nM KDR, % | Binder |
| --- | --- |
| 22% | 2′E4-PR4 (designed binder) VSDVPRDLEVVAATPTSLLISWRHPHFPTRYYRITYGETGGNSPVQEFTVPLQPPTATISGLKPGVDYTITVYAVTVHWNGHELMTPISINYRT |
| 16% | 2′C6-PR4 (designed binder) VSDVPRDLEVVAATPTSLLISWRHPHFPTRYYRITYGETGGNSPVQEFTVPLQPPTATISGLKPGVDYTITVYAVTMGFMAHELMVPISINYRT |
| 17% | 2′H4-PR4 (designed binder) VSDVPRDLEVVAATPTSLLISWRHPHFPTRYYRITYGETGGNSPVQEFTVPLQPPTATISGLKPGVDYTITVYAVTVGPNERMLMTPISINYRT |
| 22% | 2′D6-PR4 (designed binder) VSDVPRDLEVVAATPTSLLISWRHPHFPTRYYRITYGETGGNSPVQEFTVPLQPPTATISGLKPGVDYTITVYAVTVTHNGHPLMTPISINYRT |
| 18% | 3′F9 PR4 (designed binder) EVVAATPTSLLISWRHPHFPTRYYRITYGETGGNSPVQEFTVPLQPPTATISGLKPGVDYTITVYAVTLGPNDRELMTPISINYRT |
| 19% | 3′G1 PR4 (designed binder) EVVAATPTSLLISWRHPHFPTRYYRITYGETGGNSPVQEFTVPLQPPTATISGLKPGVDYTITVYAVTLALNGHELFTPISINYRT |
| 21% | 4′G12 PR4 (designed binder) EVVAATPTSLLISWRHPHFPTRYYRITYGETGGNSPVQEFTVPLQPPTATISGLKPGVDYTITVYAVTVAWNDHEIYTPISINYRT |
| 19% | 4′G4 PR4 (designed binder) EVVAATPTSLLISWRHPHFPTRYYRITYGETGGNSPVQEFTVPLQPPTATISGLKPGVDYTITVYAVTVAQNDRELLTPISINYRT |
| 36% | 3′H3 PR4 (designed binder) EVVAATPTSLLISWRHPHFPTRYYRITYGETGGNSPVQEFTVPLQPPTATISGLKPGVDYTITVYAVTLGLNDRELMTPISINYRT |
| 14% | 4′D6 PR4 (designed binder) EVVAATPTSLLISWRHPHFPTRYYRITYGETGGNSPVQEFTVPLQPPTATISGLKPGVDYTITVYAVTMAQNDHELMTPISINYRT |
| 16% | 4C9 PR3 (designed binder) EVVAATPTSLLISWRHPHFPTRYYRITYGETGGNSPVQEFTVPLQPPTATISGLKPGVDYTITVYAVTLAQNDHELLTPISINYRT |
| 15% | 3′G2 PR4 (designed binder) EVVAATPTSLLISWRHPHFPTRYYRITYGETGGNSPVQEFTVPLQPPTATISGLKPGVDYTITVYAVTLAQNGHELITPISINYRT |
| 15% | 4F4 PR3 (designed binder) EVVAATPTSLLISWRHPHFPTRYYRITYGETGGNSPVQEFTVPLQPPTATISGLKPGVDYTITVYAVTLAQNDRELITPISINYRT |
| 26% | 4′D8 PR4 (designed binder) EVVAATPTSLLISWRHPHFPTRYYRITYGETGGNSPVQEFTVPLQPPTATISGLKPGVDYTITVYAVTLAQNGHELYTPISINYRT |
| 30% | 3′G10 PR4 (designed binder) EVVAATPTSLLISWRHPHFPTRYYRITYGETGGNSPVQEFTVPLQPPTATISGLKPGVDYTITVYAVTLTHNDHELLTPISINYRT |
| 16% | 4′B7 PR4 (designed binder) EVVAATPTSLLISWRHPHFPTRYYRITYGETGGNSPVQEFTVPLQPPTATISGLKPGVDYTITVYAVTVAQNNHELLTPISINYRT |
| 17% | 4′H12 PR4 (designed binder) EVVAATPTSLLISWRHPHFPTRYYRITYGETGGNSPVQEFTVPLQPPTATISGLKPGVDYTITVYAVTVAHNDHELLTPISINYRT |
| 39% | 3′H11 PR4 (designed binder) EVVAATPTSLLISWRHPHFPTRYYRITYGETGGNSPVQEFTVPLQPPTATISGLKPGVDYTITVYAVTLAHNGNELLTPISINYRT |

| Binding to 1 nM KDR, % | Binder |
| --- | --- |
| 24% | 3′H9 PR4 (designed binder) EVVAATPTSLLISWRHPHFPTRYYRITYGETGGNSPVQEFTVPLQPPTATISGLKPGVDYTITVYAVTHGPYDQVLLTPISINYRT |
| 17% | 4′E7 PR4 (designed binder) EVVAATPTSLLISWRHPHFPTRYYRITYGETGGNSPVQEFTVPLQPPTATISGLKPGVDYTITVYAVTWAQNDHELLTPISINYRT |
| 20% | 3′H8 PR4 (designed binder) EVVAATPTSLLISWRHPHFPTRYYRITYGETGGNSPVQEFTVPLQPPTATISGLKPGVDYTITVYAVTVGHNDRELITPISINYRT |
| 17% | 3′F12 PR4 (designed binder) EVVAATPTSLLISWRHPHFPTRYYRITYGETGGNSPVQEFTVPLQPPTATISGLKPGVDYTITVYAVTLSQTDHELLTPISINYRT |
| 22% | 3′H1 PR4 (designed binder) EVVAATPTSLLISWRHPHFPTRYYRITYGETGGNSPVQEFTVPLQPPTATISGLKPGVDYTITVYAVTFAQNDHQLFTPISINYRT |
| 27% | 4′C5 PR4 (designed binder) EVVAATPTSLLISWRHPHFPTRYYRITYGETGGNSPVQEFTVPLQPPTATISGLKPGVDYTITVYAVTLGLNDHELITPISINYRT |
| 18% | 4′H5 PR4 (designed binder) EVVAATPTSLLISWRHPHFPTRYYRITYGETGGNSPVQEFTVPLQPPTATISGLKPGVDYTITVYAVTLAQNGHELFTPISINYRT |
| 20% | 4′B8 PR4 (designed binder) EVVAATPTSLLISWRHPHFPTRYYRITYGETGGNSPVQEFTVPLQPPTATISGLKPGVDYTITVYAVTVAQNDHKLFIPISINYRT |
| 29% | 4′C9 PR4 (designed binder) EVVAATPTSLLISWRHPHFPTRYYRITYGETGGNSPVQEFTVPLQPPTATISGLKPGVDYTITVYAVTLGPNDHELMTPISINYRT |
| 16% | 4′A5 PR4 (designed binder) EVVAATPTSLLISWRHPHFPTRYYRITYGETGGNSPVQEFTVPLQPPTATISGLKPGVDYTITVYAVTLAQNDHELLTPISINYRT |
| 14% | 3′H10 PR4 (designed binder) EVVAATPTSLLISWRHPHFPTRYYRITYGETGGNSPVQEFTVPLQPPTATISGLKPGVDYTITVYAVTWAWNDHELMTPISINYRT |
| 14% | 4H5 PR3 (designed binder) EVVAATPTSLLISWRHPHFPTRYYRITYGETGGNSPVQEFTVPLQPPTATISGLKPGVDYTITVYAVTVAQNGHELITPISINYRT |
| 19% | 3′G7 PR4 (designed binder) EVVAATPTSLLISWRHPHFPTRYYRITYGETGGNSPVQEFTVPLQPPTATISGLKPGVDYTITVYAVTEGQNDQLLFIPISINYRT |
| 31% | 3′G3 PR4 (designed binder) EVVAATPTSLLISWRHPHFPTRYYRITYGETGGNSPVQEFTVPLQPPTATISGLKPGVDYTITVYAVTFDQSDHELLTPISINYRT |
| 42% | 4′B3 PR4 (designed binder) EVVAATPTSLLISWRHPHFPTRYYRITYGETGGNSPVQEFTVPLQPPTATISGLKPGVDYTITVYAVTMAQNNRELLTPISINYRT |
| 25% | 4′B11 PR4 (designed binder) EVVAATPTSLLISWRHPHFPTRYYRITYGETGGNSPVQEFTVPLQPPTATISGLKPGVDYTITVYAVTMAHNDHELLTPISINYRT |
| 15% | 4B11 PR3 (designed binder) EVVAATPTSLLISWRHPHFPTRYYRITYGETGGNSPVQEFTVPLQPPTATISGLKPGVDYTITVYAVTVGQNNHELITPISINYRT |
| 29% | 4′H7 PR4 (designed binder) EVVAATPTSLLISWRHPHFPTRYYRITYGETGGNSPVQEFTVPLQPPTATISGLKPGVDYTITVYAVTLAHNDHELLTPISINYRT |
